Measurements as given in patent publication US20190017997.
Where a chain is given by its changes, count along the chain named. Numbers in names are those of the source.

T1: CRTC1 S151A/T449A
T1 chain: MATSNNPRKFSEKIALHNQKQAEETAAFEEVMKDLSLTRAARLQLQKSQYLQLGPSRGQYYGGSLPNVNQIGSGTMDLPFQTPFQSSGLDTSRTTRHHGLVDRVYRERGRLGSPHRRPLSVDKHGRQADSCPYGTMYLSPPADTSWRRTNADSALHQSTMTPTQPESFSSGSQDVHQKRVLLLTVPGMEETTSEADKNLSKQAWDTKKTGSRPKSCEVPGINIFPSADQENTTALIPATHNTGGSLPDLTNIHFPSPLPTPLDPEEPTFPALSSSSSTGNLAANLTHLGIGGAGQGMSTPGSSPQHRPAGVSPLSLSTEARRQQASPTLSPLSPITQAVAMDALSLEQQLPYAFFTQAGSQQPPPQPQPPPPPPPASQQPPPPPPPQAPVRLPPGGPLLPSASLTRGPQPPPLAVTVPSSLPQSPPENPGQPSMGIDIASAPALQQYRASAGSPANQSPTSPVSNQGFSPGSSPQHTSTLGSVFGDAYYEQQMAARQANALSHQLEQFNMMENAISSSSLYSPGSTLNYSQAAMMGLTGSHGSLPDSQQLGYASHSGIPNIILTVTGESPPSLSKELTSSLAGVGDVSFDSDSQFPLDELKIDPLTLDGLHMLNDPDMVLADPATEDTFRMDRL

T2: CRTC1 (CREB-regulated transcription coactivator 1)
T2 chain: T1 chain with A151S, A449T

T3: CRTC1 S151A
T3 chain: T1 chain with A449T

T4: CRTC1 S151A/S215A
T4 chain: T1 chain with S215A, A449T

B1: PAK4 (p21-activated kinase 4) (protein)
chain: MFGKRKKRVEISAPSNFEHRVHTGFDQHEQKFTGLPRQWQSLIEESARRPKPLVDPACITSIQPGAPKTIVRGSKGAKDGALTLLLDEFENMSVTRSNSLRRDSPPPPARARQENGMPEEPATTARGGPGKAGSRGRFAGHSEAGGGSGDRRRAGPEKRPKSSREGSGGPQESSRDKRPLSGPDVGTPQPAGLASGAKLAAGRPFNTYPRADTDHPSRGAQGEPHDVAPNGPSAGGLAIPQSSSSSSRPPTRARGAPSPGVLGPHASEPQLAPPACTPAAPAVPGPPGPRSPQREPQRVSHEQFRAALQLVVDPGDPRSYLDNFIKIGEGSTGIVCIATVRSSGKLVAVKKMDLRKQQRRELLFNEVVIMRDYQHENVVEMYNSYLVGDELWVVMEFLEGGALTDIVTHTRMNEEQIAAVCLAVLQALSVLHAQGVIHRDIKSDSILLTHDGRVKLSDFGFCAQVSKEVPRRKSLVGTPYWMAPELISRLPYGPEVDIWSLGIMVIEMVDGEPPYFNEPPLKAMKMIRDNLPPRLKNLHKVSPSLKGFLDRLLVRDPAQRATAAELLKHPFLAKAGPPASIVPLMRQNRTR
B2: caPAK4 (PAK4 S445N/S474E, constitutively active PAK4) (protein)
chain: B1 chain with S445N, S474E

Columns and labels:
CRTC1 S151A/T449A = molecular target: T1, CRTC1 S151A/T449A
[1] = molecular target: CREB (cyclic adenosine 3',5'-monophosphate response element-binding protein), P16220
[2] = molecular target: T2, CRTC1 (CREB-regulated transcription …)
CRTC1 S151A = molecular target: T3, CRTC1 S151A
CRTC1 S151A/S215A = molecular target: T4, CRTC1 S151A/S215A

CREB (cyclic adenosine 3',5'-monophosphate response element-binding protein), P16220, sequence (P16220 whole entry): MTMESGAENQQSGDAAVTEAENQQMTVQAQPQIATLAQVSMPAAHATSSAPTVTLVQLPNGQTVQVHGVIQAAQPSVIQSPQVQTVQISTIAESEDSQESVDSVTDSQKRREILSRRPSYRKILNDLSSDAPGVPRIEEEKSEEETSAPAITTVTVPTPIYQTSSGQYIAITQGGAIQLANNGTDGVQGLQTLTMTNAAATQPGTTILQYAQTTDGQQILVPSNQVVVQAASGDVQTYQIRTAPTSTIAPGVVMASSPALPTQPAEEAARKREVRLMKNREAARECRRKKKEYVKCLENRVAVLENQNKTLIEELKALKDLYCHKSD

Protein	phosphorylation by PAK4 (kinase analysis of CRTC1 variants) (CRTC1 S151A/T449A)	phosphorylation of CREB [1]	phosphorylation of CRTC1 (in vitro kinase assay) [2]	phosphorylation by PAK4 (kinase analysis of CRTC1 variants) (CRTC1 S151A)	phosphorylation by PAK4 (kinase analysis of CRTC1 variants) (CRTC1 S151A/S215A)	substrate of the kinase (kinase analysis) [2]
B1	CRTC1^S151A and CRTC1^S151A/T449A were slightly phosphorylated	PAK4 does not induce phosphorylation of CREB	PAK4 phosphorylates CRTC1	CRTC1^S151A and CRTC1^S151A/T449A were slightly phosphorylated	CRTC1^S151A/S215A, was not phosphorylated	
B2						CRTC1 is a substrate of caPAK4
